{"source": "patent US20030180282A1", "about": "“Method of treatment of thrombotic events” (priority 2002, published 2003)", "key": {"[1]": {"test_system": "platelet-derived biomarkers", "assay": "ASSENT-2 platelet substudy: ELISA of platelet-derived biomarkers in plasma of AMI patients", "format": "in vivo, human", "protocol": "Forty-one patients with ST-segment elevation AMI enrolled in a single ASSENT-2 site (Rashid Hospital, Dubai, United Arab Emirates) were studied. The inclusion and exclusion criteria of ASSENT-2 have been previously reported ([no authors listed] (1999) Lancet 354:716-722). Briefly, patients included in the trial were between 18 and 70 years of age and were seen within 6 hours of symptom onset with >30 minutes of continuous symptoms. […] After informed consent was obtained, 7 serum samples were drawn. Samples were collected at baseline and at 30-minute intervals during a 180-minute period. Within 15 minutes of sample acquisition, plasma was separated by centrifugation at 800 g for 10 minutes, aspirated, placed in vials, and snapped frozen at −20° C.\nEnzyme-linked immunosorbent assay (ELISA) was used according to standard sandwich techniques for CD 31 (sPECAM-1), sVACAM-1, sP-selectin, (R&D Systems Inc. Minneapolis, Minn.), beta-thromboglobulin, Asserachrom® (Diagnostica Stago Inc., Parsippany, N.J.), platelet factor 4 Asserachrom®, thromboxane, and prostacyclin (Cayman Chemical Co., MI). Each sample was measured in duplicate, and the overall intra-assay coefficient of variation was between 3.1%±0.4% and 7.6%±1.0%, with a plasma recovery rate between 89.7% and 98.7%.\nFor all comparisons, statistical analyses were done by using repeated measures ANOVA. Post hoc comparison was performed by use of the Bonferroni t-test to identify specific differences in platelet aggregation and receptor expression between patients treated with TNK and t-PA, and controls. The Mann-Whitney U test was used to analyze non-parametric data. Normally distributed data were expressed as mean±SE, and skewed data as median (range). Probability values of P<0.05 were regarded as statistically significant. Linear regression analysis was applied to normally distributed data for all study participants by using the Statview 4.1 program for analysis.\nIn the ASSENT-2 Platelet Substudy, 21 of the 41 patients enrolled received TNK (30-50 mg), while the remaining 20 received t-PA (40-85 mg). There were no substantial differences in baseline characteristics for the AMI patients."}, "platelets": {"test_system": "platelets", "assay": "in vitro comparison of TNK versus t-PA on platelet activation and surface receptor expression (15 parameters)", "format": "cell-based, human", "settings": "TNK 12 μg/mL, t-PA 4 μg/mL, 30 minutes", "protocol": "Blood samples for the in vitro study were obtained from 9 healthy volunteers. None of the subjects smoked or had hypertension, diabetes, or an abnormal hematocrit. None had received aspirin or any other antiplatelet drugs. All subjects underwent blood sampling after at least 30 minutes of rest and 2 or more hours of fasting. Blood was drawn from an antecubital vein between 8 am and 10 am in order to avoid any diurnal influence. A 21-gauge butterfly needle was used to draw blood into a tube containing 3.8% sodium citrate (1:9 volume); the first 1.5 mL of free running blood was discarded. One tube was kept as an internal control. A second tube was incubated with tenecteplase (TNK) for 30 minutes at room temperature in order to achieve a final concentration of 12 μg/mL. […]\nFor the platelet aggregation (PA) studies, platelet-rich plasma (PRP) was first isolated. […] Platelet counts were determined for each PRP sample with a Coulter Counter ZM (Coulter Co., Hialeah, Fla.). […] Platelet aggregation was determined by using a 4 channel Chrono-log Lumi-Aggregometer (model 560-Ca) and expressed as the maximum percentage of light transmittance change (% max) from the baseline at the end of the recording time. […] Platelet aggregability curves were recorded for 6 minutes and analyzed according to internationally established standards (see, e.g., Ruggeri, Z. M. (1994) Semin. Hemat. 31:229-239). […]"}}, "data": [{"molecule": "t-PA: recombinant tissue plasminogen activator, thrombolytic agent (Genentech) (protein, UniProt P00750 36-562, looked up) Tissue-type plasminogen …: SYQVICRDEKTQMIYQQHQSWLRPVLRSNRVEYCWCNSGRAQCHSVPVKSCSEPRCFNGGTCQQALYFSDFVCQCPEGFAGKCCEIDTRATCYEDQGISYRGTWSTAESGAECTNWNSSALAQKPYSGRRPDAIRLGLGNHNYCRNPDRDSKPWCYVFKAGKYSSEFCSTPACSEGNSDCYFGNGSAYRGTHSLTESGASCLPWNSMILIGKVYTAQNPSAQALGLGKHNYCRNPDGDAKPWCHVLKNRRLTWEYCDVPSCSTCGLRQYSQPQFRIKGGLFADIASHPWQAAIFAKHRRSPGERFLCGGILISSCWILSAAHCFQERFPPHHLTVILGRTYRVVPGEEEQKFEVEKYIVHKEFDDDTYDNDIALLQLKSDSSRCAQESSVVRTVCLPPADLQLPDWTECELSGYGKHEALSPFYSERLKEAHVRLYPSSRCTSQHLLNRTVTDNMLCAGDTRSGGPQANLHDACQGDSGGPLVCLNDGRMTLVGIISWGLGCGQKDVPGVYTKVTNYLDWIRDNMRP", "values": [{"measurement": "P-selectin plasma concentrations, course", "setting": "[1]; 180-minute period", "result": "increase steadily"}, {"measurement": "plasma levels of PECAM-1", "setting": "[1]; AMI patients after thrombolysis", "result": "not in t-PA-treated patients"}, {"measurement": "release of substances from platelets (plasma biomarkers)", "setting": "[1]; TNK 30-50 mg, t-PA 40-85 mg, 180-minute period", "result": "decreased release"}, {"measurement": "vascular cell adhesion molecule-1 (VCAM-1) release", "setting": "[1]; after 90 minutes", "result": "no marked changes"}, {"measurement": "concentrations of α-granule constituents", "setting": "[1]; to a lesser extent than TNK", "result": "Decreased concentrations"}, {"measurement": "platelet function, 10 of 15 parameters, compared with baseline DPBS values", "setting": "platelets", "result": "diminished platelet function"}]}]}
